The target of this assay is S protein of GD03T on pseudotyped HIV (SARS-CoV (GD03T isolate)). The assay can be described thus: cell-based or functional assay.

A value given as a limit tells only on which side of the number the result lay.

As to 80R IgG1 (antibody), the S-protein-pseudotyped HIV luciferase infection of ACE2-expressing 293T cells is > 50 µg/mL.
